Results on 3 molecules are retold here after patent publication US8975044B2, “Polynucleotides encoding for frizzled-binding agents and uses thereof” (OncoMed Pharmaceuticals, Inc., priority 2008, dated 2015).

The target in one assay is T1, FZD1 (Homo sapiens, UniProt Q9UP38).
T1 construct: plasmid DNA expressing full-length FZD1, 2, 5, 7 or 8; expressed in transfected cells; host or cells: HEK293
Description: FACS binding to FZD-transfected HEK293 cells. To be noted: transfected HEK293 cells. The protocol:
(§1) To measure antibody binding to FZD by flow cytometry HEK293 cells were co-transfected with FZD expression vectors and the transfection marker GFP. Twenty-four to forty-eight hours post-transfection, cells were collected in suspension and incubated on ice with anti-FZD antibodies (10 μg/ml unless otherwise indicated) or control IgG to detect background antibody binding. The cells were washed and primary antibodies detected with Fc domain-specific secondary antibodies conjugated to a fluorescent chromophore (e.g. phycoerythrin conjugated anti-human IgG). Labeled cells were then analyzed by flow cytometry to identify anti-FZD antibodies that specifically recognize cell surface expression of FZD protein. Monoclonal antibodies 18R5 and 18R8 recognized FZD on transfected cells. As shown in FIG. 1 and FIG. 2, both 18R8 and 18R5 bind to multiple FZD including FZD1, FZD2, FZD5, FZD7, and FZD8. To examine the relative ability of 18R8 and 18R5 to bind to each FZD protein, titration analysis was conducted wherein the amount of antibody in the binding reaction was varied (FIG. 2).
(§2) HEK293 cells were co-transfected with a plasmid DNA expressing full-length FZD1, 2, 5, 7 or 8 along with another plasmid expressing the reporter gene GFP used as a transfection marker. Fugene 6 (Roche) was used as transfection reagent according to the manufacturer directions. Transfected cells were incubated twenty-four to forty-eight hours at 37° C. and 5% CO2. The anti-FZD mAbs were then diluted in a final volume of 50 μl starting with a concentration of 20 μg/ml and serially diluted 4-fold for a total of 8 dilutions. Each FZD/GFP 293 transiently tranfectant pool was collected in suspension and 100,000 transfected cells were incubated on ice 30-60 minutes with the diluted anti-FZD mAb to be tested. The cells were washed and bound anti-Fzd antibodies were detected with a secondary anti-human antibody conjugated to a fluorescent chromophore. Labeled cells were then detected and counted by FACS. The FACS data generated were expressed in Mean Fluorescence Intensity (MFI) units. GraphPad Prism software was used to graph and analyze the data. MFIs were plotted as a function of Ab concentration to establish dose-response curves. A non-linear regression was applied to the numbers to fit the curve and calculate EC50s.

The next assay deals with T2, FZD2 (Homo sapiens, UniProt Q14332).
T2 construct: plasmid DNA expressing full-length FZD1, 2, 5, 7 or 8; expressed in transfected cells; host or cells: HEK293
The assay can be described thus: FACS binding to FZD-transfected HEK293 cells. Conditions: for binding to cell-surface FZD2 by flow cytometry (in words): transfected HEK293 cells. As to the method: as §1, §2

The next assay has as its target T3, FZD5 (Homo sapiens, UniProt Q13467).
T3 construct: plasmid DNA expressing full-length FZD1, 2, 5, 7 or 8; expressed in transfected cells; host or cells: HEK293
The assay can be described thus: FACS binding to FZD-transfected HEK293 cells. Conditions: for EC50: FACS MFI dose-response, full-length FZD in HEK293, 20 μg/ml 4-fold dilutions; for binding to cell-surface FZD5 by flow cytometry (in words): transfected HEK293 cells. The protocol: as §1, §2

A further assay addresses T4, FZD7 (Homo sapiens, UniProt O75084).
T4 construct: plasmid DNA expressing full-length FZD1, 2, 5, 7 or 8; expressed in transfected cells; host or cells: HEK293
The assay can be described thus: FACS binding to FZD-transfected HEK293 cells. Conditions: transfected HEK293 cells. The protocol:
as §1, §2

Assay [1] concerns the target T5, FZD8 (Homo sapiens, UniProt Q9H461).
T5 construct: plasmid DNA expressing full-length FZD1, 2, 5, 7 or 8; expressed in transfected cells; host or cells: HEK293
The assay can be described thus: FACS binding to FZD-transfected HEK293 cells. To be noted: for EC50: FACS MFI dose-response, full-length FZD in HEK293, 20 μg/ml 4-fold dilutions; for binding to cell-surface FZD8 by flow cytometry (in words): transfected HEK293 cells. As to the method: as §1, §2

A further assay has as its system Wnt signaling pathway. Description: 8xTCF luciferase reporter assay in STF293 cells with Wnt3A-conditioned medium. In kind it is cell-based, human. Conditions: range of antibody concentrations, 18 hours. As to the method:
STF293 cells were cultured in DMEM supplemented with antibiotics and 10% FCS. The STF293 cells are 293 cells in which the following have been stably integrated: (1) an 8×TCF Luc reporter vector containing […] of the TCF binding site linked to a promoter upstream of a firefly luciferase reporter gene to measure canonical Wnt signaling levels (Gazit et al., 1999, Oncogene 18:5959-66) and (2) a Renilla luciferase reporter (Promega; Madison, Wis.) as an internal control for transfection efficiency. The cells were added to cultures plates. The FZD antibodies to be tested (or no antibodies) were added. The cells were then incubated in the presence or absence of Wnt3A-conditioned medium that had been prepared from L cells that stably express Wnt3a (ATCC CRL-2647) or control conditioned media from L cells not overexpressing Wnt3A (ATCC cell line CRL-2648). After overnight incubation, luciferase levels were measured using a dual luciferase assay kit (Promega; Madison, Wis.) with firefly luciferase activity normalized to Renilla luciferase activity.
The ability of the 18R8 and 18R5 antibodies to inhibit Wnt-induced pathway activation was thus determined. STF293 cells were treated with different concentrations of 18R8 or 18R5 IgG antibodies and Wnt3A-conditioned medium was added. The cells were assayed 18 hours later using the dual luciferase assay kit.

In assay [2] the target is T6, FZD8 (Homo sapiens, UniProt Q9H461, F127V/G126N).
T6 construct: N-terminus of the Fri domain of FZD8 in turn fused to the transmembrane domain and intracellular domain of CD4 protein; expressed in transfected cells; host or cells: HEK293
T6 sequence (Q9H461 28-158 G126N/F127V): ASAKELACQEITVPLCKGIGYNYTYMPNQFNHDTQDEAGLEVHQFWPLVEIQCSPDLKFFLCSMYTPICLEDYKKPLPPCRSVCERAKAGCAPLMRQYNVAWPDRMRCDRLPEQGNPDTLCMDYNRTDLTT
Description: Epitope mapping by FACS on FZD8 Fri domain variants on HEK293 cells. Conditions: amino acids 126-127 mutated from FG to NV. In kind it is binding. As to the method: To identify the FZD epitope recognized by the 18R8 IgG antibody, epitope mapping was performed. Flow cytometry analysis of cell surface expressed FZD was utilized to measure antibody binding. Mammalian expression plasmid vectors comprising a CMV promoter upstream of polynucleotides that encode an N-terminal signal sequence FLAG epitope tag fused to the N-terminus of the Fri domain of FZD8 in turn fused to the transmembrane domain and intracellular domain of CD4 protein were generated by standard recombinant technology. This expression construct allows expression of the FZD8 Fri domain on the cell surface, as well as expression of a FLAG epitope tag to monitor expression. Site-direct mutagenesis was then used to modify selected amino acids within the extracellular domain of FZD. HEK293 cells were co-transfected with expression vectors encoding the FZD and the transfection marker GFP. Forty-eight hours post-transfection, cells were collected in suspension and incubated on ice with anti-FZD antibody or control IgG to detect background antibody binding. The cells were washed and primary antibodies detected with anti-antibody secondary antibodies conjugated to a fluorescent chromophore. Labeled cells were then analyzed by flow cytometry to measure the binding of anti-FZD antibody to cell surface FZD.
Epitope mapping for the anti-FZD antibody 44R24 was performed in a manner similar to that described above in Example 5 for the antibodies 18R8 and 18R5. The ability of 44R24 to bind to a similar epitope as 18R8 was assessed by flow cytometry using a series of amino acid variants of FZD8 previously shown to disrupt binding of 18R8 (see Example 5 and FIGS. 6 and 7).

The next assay deals with C28 tumor cells. Description: C28 colon tumor growth study. To be noted: 15 mg/kg intraperitoneally twice per week. In kind it is in vivo, Nod-Scid mice. As to the method: C28 tumor cells were injected sub-cutaneously in Nod-Scid mice. Tumors were allowed to grow until they had reached an average volume of 126 mm^3. Tumor bearing animals were groups were randomized into four groups (n=10 mice per group) and treated with either Control Ab (black squares), 18R8 (gray triangles), 44R24 (black open circles), or 18R5 (gray circles) (FIG. 58). Antibodies were dosed intraperitoneally at 15 mg/kg, twice per week. Tumor volumes are indicated.

“Also recorded” adds a separate entry of the source.

T3 sequence (Q13467 27-585): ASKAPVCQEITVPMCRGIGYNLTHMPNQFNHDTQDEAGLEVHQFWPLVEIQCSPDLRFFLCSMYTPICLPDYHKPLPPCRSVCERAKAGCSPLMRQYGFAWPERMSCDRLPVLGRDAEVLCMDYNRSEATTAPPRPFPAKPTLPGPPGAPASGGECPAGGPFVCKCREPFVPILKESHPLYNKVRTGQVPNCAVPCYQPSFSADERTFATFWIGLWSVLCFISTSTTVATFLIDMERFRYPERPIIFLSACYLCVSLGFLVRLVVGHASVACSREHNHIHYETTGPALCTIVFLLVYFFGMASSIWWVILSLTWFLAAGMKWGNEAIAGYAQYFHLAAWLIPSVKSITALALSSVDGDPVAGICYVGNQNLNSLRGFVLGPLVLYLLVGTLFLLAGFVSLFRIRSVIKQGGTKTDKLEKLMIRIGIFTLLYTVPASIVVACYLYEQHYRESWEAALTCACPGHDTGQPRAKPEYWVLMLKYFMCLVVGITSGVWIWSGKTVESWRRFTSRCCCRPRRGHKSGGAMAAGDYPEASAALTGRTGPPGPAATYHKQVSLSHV
T2 sequence (Q14332 24-565): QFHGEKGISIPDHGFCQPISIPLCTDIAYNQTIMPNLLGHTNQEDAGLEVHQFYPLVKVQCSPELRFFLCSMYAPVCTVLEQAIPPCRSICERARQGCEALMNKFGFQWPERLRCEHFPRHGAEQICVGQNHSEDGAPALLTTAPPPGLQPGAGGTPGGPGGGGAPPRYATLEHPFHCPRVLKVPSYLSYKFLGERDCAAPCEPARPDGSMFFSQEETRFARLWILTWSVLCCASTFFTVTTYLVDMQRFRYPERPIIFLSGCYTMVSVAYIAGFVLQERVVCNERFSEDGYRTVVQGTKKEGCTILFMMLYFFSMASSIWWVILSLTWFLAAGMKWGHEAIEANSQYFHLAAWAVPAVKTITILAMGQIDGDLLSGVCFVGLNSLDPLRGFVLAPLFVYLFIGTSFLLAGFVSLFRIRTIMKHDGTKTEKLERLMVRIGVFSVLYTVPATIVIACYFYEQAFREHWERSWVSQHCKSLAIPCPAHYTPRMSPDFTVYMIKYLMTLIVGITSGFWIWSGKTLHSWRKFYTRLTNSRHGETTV
T5 sequence (Q9H461 28-694): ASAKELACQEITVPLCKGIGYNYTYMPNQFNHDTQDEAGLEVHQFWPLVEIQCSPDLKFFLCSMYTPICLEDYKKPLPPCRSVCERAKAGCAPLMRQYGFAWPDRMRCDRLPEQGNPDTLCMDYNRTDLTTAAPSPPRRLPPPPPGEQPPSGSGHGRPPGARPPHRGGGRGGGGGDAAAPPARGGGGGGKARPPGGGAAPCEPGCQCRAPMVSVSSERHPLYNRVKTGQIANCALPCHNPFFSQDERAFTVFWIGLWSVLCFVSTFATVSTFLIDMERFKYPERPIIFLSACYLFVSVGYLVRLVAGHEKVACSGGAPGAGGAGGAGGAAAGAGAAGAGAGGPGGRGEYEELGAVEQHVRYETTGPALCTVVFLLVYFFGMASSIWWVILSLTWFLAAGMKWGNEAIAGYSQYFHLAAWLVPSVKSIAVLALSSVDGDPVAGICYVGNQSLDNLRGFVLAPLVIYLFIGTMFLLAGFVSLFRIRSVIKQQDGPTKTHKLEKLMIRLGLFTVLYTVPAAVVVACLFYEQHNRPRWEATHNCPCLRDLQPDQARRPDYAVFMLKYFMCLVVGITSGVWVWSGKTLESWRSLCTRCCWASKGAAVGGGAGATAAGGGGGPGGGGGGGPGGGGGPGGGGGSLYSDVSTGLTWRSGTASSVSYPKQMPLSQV
T1 sequence (Q9UP38 70-647): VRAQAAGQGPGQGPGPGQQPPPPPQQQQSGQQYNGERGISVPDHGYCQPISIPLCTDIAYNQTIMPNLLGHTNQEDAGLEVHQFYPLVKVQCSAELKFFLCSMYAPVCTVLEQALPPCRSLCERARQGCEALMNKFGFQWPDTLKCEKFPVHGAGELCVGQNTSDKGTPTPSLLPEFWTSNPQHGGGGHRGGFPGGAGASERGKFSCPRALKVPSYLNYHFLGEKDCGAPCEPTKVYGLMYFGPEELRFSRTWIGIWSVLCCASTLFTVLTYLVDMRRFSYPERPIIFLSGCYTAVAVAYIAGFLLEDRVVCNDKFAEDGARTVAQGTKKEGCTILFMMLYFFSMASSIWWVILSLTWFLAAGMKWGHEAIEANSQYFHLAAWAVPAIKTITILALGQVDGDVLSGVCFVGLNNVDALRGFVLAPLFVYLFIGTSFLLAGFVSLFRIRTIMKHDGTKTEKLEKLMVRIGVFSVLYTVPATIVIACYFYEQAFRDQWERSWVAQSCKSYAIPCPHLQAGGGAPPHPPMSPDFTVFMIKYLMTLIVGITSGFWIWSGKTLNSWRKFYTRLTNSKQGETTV

B1: 18R5: human anti-FZD antibody; VH SEQ ID NO:10 (as 18R8), VL SEQ ID NO:14; binds FZD1, 2, 5, 7, 8 (antibody, V domains shown)
VH: EVQLVESGGGLVQPGGSLRLSCAASGFTFSHYTLSWVRQAPGKGLEWVSVISGDGSYTYYADSVKGRFTISSDNSKNTLYLQMNSLRAEDTAVYYCARNFIKYVFANWGQGTLVTVSS
VL: DIELTQPPSVSVAPGQTARISCSGDNIGSFYVHWYQQKPGQAPVLVIYDKSNRPSGIPERFSGSNSGNTATLTISGTQAEDEADYYCQSYANTLSLVFGGGTKLTVLG
modifications: 18R5/18R8 heavy chain variable region (VH); 18R5 light chain variable region (VL)
As to B1, the “binding to cell-surface FZD1 by flow cytometry (in words)” value (“binding to cell-surface FZD1” below) with FZD1 was “bind and greater binding potency and High affinity binding”. Moreover, the “binding to cell-surface FZD2 by flow cytometry (in words)” value (from here on “binding to cell-surface FZD2”) with FZD2 was “bind and greater binding potency and High affinity binding”. In the assay with FZD5, the 50% effective concentration (EC50) amounted to 1.1 nM; the “binding to cell-surface FZD5 by flow cytometry (in words)” value (shortened to “binding to cell-surface FZD5”) was “bind and greater binding potency and High affinity binding”. Moreover, in the assay with FZD7, the “binding to cell-surface FZD7 by flow cytometry (in words)” value (“binding to cell-surface FZD7” below) is “bind and greater binding potency and High affinity binding”. Further, in the assay with FZD8 [1], the midpoint of the response, the EC50, lay at 12 nM; the “binding to cell-surface FZD8 by flow cytometry (in words)” value (from here on “binding to cell-surface FZD8”) was “greater binding potency and bind”. For the same molecule, the “inhibition of Wnt3A-induced TCF signaling” value in the assay with Wnt signaling pathway is reported as “Greater inhibition; also recorded: inhibit Wnt signaling”. Further, in the assay with FZD8 [2], the “binding to FZD8 variant” value is on record as “reduced staining”. Also, in the assay on C28 tumor cells, the “tumor growth relative to the control group” value was “reduced growth relative to the control group”.

B2: 18R8: human anti-FZD antibody from phage display; VH SEQ ID NO:10, VL SEQ ID NO:12; binds FZD1, 2, 5, 7, 8 (antibody, V domains shown)
VH: B1 VH
VL: DIELTQPPSVSVAPGQTARISCSGDKLGKKYASWYQQKPGQAPVLVIYEKDNRPSGIPERFSGSNSGNTATLTISGTQAEDEADYYCSSFAGNSLEVFGGGTKLTVLG
modifications: 18R5/18R8 heavy chain variable region (VH); 18R8 light chain variable region (VL)
As for B2, the “binding to cell-surface FZD1” value in the assay with FZD1 is “bind”. Further, the “binding to cell-surface FZD2” value in the assay with FZD2 was “bind”. Also, in the assay with FZD5, the “binding to cell-surface FZD5” value is “bind”. Also, the “binding to cell-surface FZD7” value with FZD7 is given as “bind”. In the assay with FZD8 [1], the “binding to cell-surface FZD8” value is “bind”. The “inhibition of Wnt3A-induced TCF signaling” value in the assay on Wnt signaling pathway is listed as “inhibit Wnt signaling”. The “binding to FZD8 variant” value in the assay with FZD8 [2] is reported as “similarly lost”. Also, the “tumor growth relative to the control group” value in the assay with C28 tumor cells was “had no effect”.

B3: 44R24: anti-FZD5/8 IgG antibody, VH SEQ ID NO:85, VL SEQ ID NO:86; ATCC deposit no. PTA-10311 (antibody, V domains shown)
VH: EVQLVESGGGLVQPGGSLRLSCAASGFTFSSYYITWVRQAPGKGLEWVSTISYSSSNTYYADSVKGRFTISRDNSKNTLYLQMNSLRAEDTAVYYCARSIVFDYWGQGTLVTVSS
VL: DIELTQPPSVSVAPGQTARISCSGDALGNRYVYWYQQKPGQAPVLVIPSGIPERFSGSNSGNTATLTISGTQAEDEADYYCGSWDTRPYPKYVFGGGTKLTVLG
modifications: 44R24 VH; 44R24 VL
notes: ATCC deposit no; PTA-10311
Consider B3, for which the “binding to cell-surface FZD1” value with FZD1 is “does not bind”. Also, the “EC50 (nM) Fzd2” value with FZD2 (FACS MFI dose-response, full-length FZD in HEK293, 20 μg/ml 4-fold dilutions) is recorded as “no binding”. The “binding to cell-surface FZD2” value with FZD2 is “does not bind”. Also, in the assay with FZD5, a half-maximal response (EC50) required 1.89 nM and the “binding to cell-surface FZD5” value is “good affinity”. The “binding to cell-surface FZD7” value with FZD7 is “does not bind”. In addition, in the assay with FZD8 [1], the EC50 was 1.09 nM and the “binding to cell-surface FZD8” value was “good affinity”. The “binding to FZD8 variant” value with FZD8 [2] is reported as “reduced staining”. The “tumor growth relative to the control group” value in the assay with C28 tumor cells is given as “reduced growth relative to the control group”.
